T1: Fragment L1–134 of GvpL, split-GFP fusion (Halobacterium salinarum, UniProt Q9HI27 1-134)
T1 construct: GvpL, p-vac region of Hbt. salinarum PHH1, residues 1–134 (first of two domains); source: Hfx. volcanii transformant, in cells
T1 sequence (looked up): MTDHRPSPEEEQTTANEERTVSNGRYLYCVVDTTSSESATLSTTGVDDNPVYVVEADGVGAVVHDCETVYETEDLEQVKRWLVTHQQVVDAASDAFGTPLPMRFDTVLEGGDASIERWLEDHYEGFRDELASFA

T2: Fragment J1–56 of GvpJ, split-GFP fusion (Halobacterium salinarum, UniProt P24374 1-56)
T2 construct: GvpJ, p-vac region of Hbt. salinarum PHH1, residues 1–56; source: Hfx. volcanii transformant, in cells
T2 sequence (looked up): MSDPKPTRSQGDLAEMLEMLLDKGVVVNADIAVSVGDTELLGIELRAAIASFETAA

T3: Fragment F1–110 of GvpF, split-GFP fusion (Halobacterium salinarum, UniProt Q9HI21 1-110)
T3 construct: GvpF, p-vac region of Hbt. salinarum PHH1, residues 1–110 (first of two domains); source: Hfx. volcanii transformant, in cells
T3 sequence (looked up): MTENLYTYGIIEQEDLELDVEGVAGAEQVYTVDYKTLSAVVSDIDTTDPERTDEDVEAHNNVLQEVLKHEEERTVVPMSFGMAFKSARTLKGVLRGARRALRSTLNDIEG

T4: Fragment J47–114 of GvpJ, split-GFP fusion (Halobacterium salinarum, UniProt P24374 47-114)
T4 construct: source: Hfx. volcanii transformant, in cells
T4 sequence (looked up): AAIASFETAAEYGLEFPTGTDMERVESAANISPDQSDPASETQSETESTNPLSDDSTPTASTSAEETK

T5: Fragment L133–281 of GvpL, split-GFP fusion (Halobacterium salinarum, UniProt Q9HI27 133-281)
T5 construct: GvpL, p-vac region of Hbt. salinarum PHH1, residues 133–281 (second of two domains); source: Hfx. volcanii transformant, in cells
T5 sequence (looked up): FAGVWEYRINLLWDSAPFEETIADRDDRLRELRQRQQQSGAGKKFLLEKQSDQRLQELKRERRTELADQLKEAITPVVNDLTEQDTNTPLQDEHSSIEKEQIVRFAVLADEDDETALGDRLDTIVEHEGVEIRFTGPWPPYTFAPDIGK

T6: GvpF, entire protein, split-GFP fusion (Halobacterium salinarum, UniProt Q9HI21 1-213)
T6 construct: GvpF, p-vac region of Hbt. salinarum PHH1, 23 kDa; also called the entire GvpF; source: Hfx. volcanii transformant, in cells
T6 sequence (looked up): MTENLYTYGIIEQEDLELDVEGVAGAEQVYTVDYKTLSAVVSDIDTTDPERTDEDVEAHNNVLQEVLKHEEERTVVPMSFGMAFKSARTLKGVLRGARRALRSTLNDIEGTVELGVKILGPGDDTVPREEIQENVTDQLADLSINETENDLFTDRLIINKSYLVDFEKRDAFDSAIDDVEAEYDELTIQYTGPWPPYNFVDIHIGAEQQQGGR

B1: GvpG, split-GFP fusion (natural protein, Halobacterium salinarum, UniProt P24371 1-83, looked up)
chain: MFIIDDLFVSPFFSLLDILQTMALDEMYDTKSIRDDIKENQLLYEVGERSDEEYQQRKQALESQLEMAEQVQEQMRDRMEVKK
notes: GvpG, p-vac region of Hbt. salinarum PHH1; no truncation is mentioned; source: Hfx. volcanii transformant, in cells
B2: GvpJ, entire protein, split-GFP fusion of Figure 7 (natural protein, Halobacterium salinarum, UniProt P24374 1-114, looked up)
chain: MSDPKPTRSQGDLAEMLEMLLDKGVVVNADIAVSVGDTELLGIELRAAIASFETAAEYGLEFPTGTDMERVESAANISPDQSDPASETQSETESTNPLSDDSTPTASTSAEETK
notes: also called the entire GvpJ; source: Hfx. volcanii transformant, in cells
B3: GvpM, entire protein, split-GFP fusion of Figure 7 (natural protein, Halobacterium salinarum, UniProt P24377 1-84, looked up)
chain: MEPTKDETHAIVEFVDVLLRDGAVIQADVIVTVADIPLIGISLRAAIAGMTTMTEYGLFEEWDAAHRQQSEAFTTSPTADRRED
notes: GvpM, p-vac region of Hbt. salinarum PHH1; printed as 83 aa and as 84 aa; also called the entire GvpM; source: Hfx. volcanii transformant, in cells
B4: GvpL, entire protein, split-GFP fusion of Figure 7 (natural protein, Halobacterium salinarum, UniProt Q9HI27 1-281, looked up)
chain: MTDHRPSPEEEQTTANEERTVSNGRYLYCVVDTTSSESATLSTTGVDDNPVYVVEADGVGAVVHDCETVYETEDLEQVKRWLVTHQQVVDAASDAFGTPLPMRFDTVLEGGDASIERWLEDHYEGFRDELASFAGVWEYRINLLWDSAPFEETIADRDDRLRELRQRQQQSGAGKKFLLEKQSDQRLQELKRERRTELADQLKEAITPVVNDLTEQDTNTPLQDEHSSIEKEQIVRFAVLADEDDETALGDRLDTIVEHEGVEIRFTGPWPPYTFAPDIGK
notes: GvpL, p-vac region of Hbt. salinarum PHH1, 32 kDa; also called the entire GvpL; source: Hfx. volcanii transformant, in cells
B5: Fragment A1–22 of GvpA, split-GFP fusion (peptide, UniProt P08958 1-22, looked up)
chain: MAQPDSSGLAEVLDRVLDKGVV
notes: GvpA, p-vac region of Hbt. salinarum PHH1, first 22 aa including α-helix 1; construct of Völkner et al. 2020; source: Hfx. volcanii transformant, in cells
B6: GvpA, entire protein, split-GFP fusion (natural protein, Halobacterium salinarum, UniProt P08958 1-76, looked up)
chain: MAQPDSSGLAEVLDRVLDKGVVVDVWARVSLVGIEILTVEARVVAASVDTFLHYAEEIAKIEQAELTAGAEAAPEA
notes: GvpA, p-vac region of Hbt. salinarum PHH1, 76 aa; also called the entire GvpA; source: Hfx. volcanii transformant, in cells
B7: GvpK, split-GFP fusion (natural protein)
chain: not shown
notes: GvpK, p-vac region of Hbt. salinarum PHH1; no truncation is mentioned; source: Hfx. volcanii transformant, in cells
B8: Fragment M1–25 of GvpM, split-GFP fusion of Figure 7 (peptide, UniProt P24377 1-25, looked up)
chain: MEPTKDETHAIVEFVDVLLRDGAVI
notes: GvpM, p-vac region of Hbt. salinarum PHH1, N-terminal 25 aa; also called M25N; M(25N); source: Hfx. volcanii transformant, in cells
B9: Fragment M60–84 of GvpM, split-GFP fusion (peptide, UniProt P24377 60-84, looked up)
chain: EEWDAAHRQQSEAFTTSPTADRRED
notes: GvpM, p-vac region of Hbt. salinarum PHH1, C-terminal 25 aa; also called M25C; M(25C); source: Hfx. volcanii transformant, in cells
B10: Fragment A44–76 of GvpA, split-GFP fusion (domain or fragment, Halobacterium salinarum, UniProt P08958 44-76, looked up)
chain: VAASVDTFLHYAEEIAKIEQAELTAGAEAAPEA
notes: GvpA, p-vac region of Hbt. salinarum PHH1, residues 44–76; construct of Völkner et al. 2020; source: Hfx. volcanii transformant, in cells
B11: GvpH, split-GFP fusion (natural protein, Halobacterium salinarum, UniProt P24372 1-182, looked up)
chain: MVPDENDDASDDQSSQLSGLLDQLHTLVEVLADIEEEGGHRHESGRIDRGNARIDYDYDVSIGLGRADGSSYDEEPSSNRSRSEQRSGQQRTTEDSIHVETRGGTSGDELVVVADLPGVTDDDVDVALDTDEQALTLRVDDDVVERVVLDRPDVAITDMTLRNQVLEIRLARTSDTDGGEST
notes: GvpH, p-vac region of Hbt. salinarum PHH1; no truncation is mentioned; source: Hfx. volcanii transformant, in cells

Biological target: T1, Fragment L1–134 of GvpL, split-GFP …
Assay: split reporter (BiFC, NanoBiT); split-GFP (mGFP2) in Hfx. volcanii transformants, entire Gvp proteins and fragments (Figure 7); arrangement of the GFP portions not stated; relative fluorescence (rf) of cells against untransformed WR340
Settings: partners not purified

| Binder | relative fluorescence (rf) |
| --- | --- |
| B1 | < 2.6 |
| B2 | < 2.6 |
| B3 | < 2.6 |

Biological target: T2, Fragment J1–56 of GvpJ, split-GFP fusion
Assay: as above
Settings: partners not purified

| Binder | relative fluorescence (rf) |
| --- | --- |
| B4 | 6.7 |

Biological target: T3, Fragment F1–110 of GvpF, split-GFP …
Assay: as above
Settings: partners not purified

| Binder | relative fluorescence (rf) |
| --- | --- |
| B5 | < 4 |
| B6 | < 4 |

Biological target: B4
Assay: as above
Settings: partners not purified

| Binder | relative fluorescence (rf) |
| --- | --- |
| B1 | 77.5 |
| B7 | 7.4 |

Biological target: T4, Fragment J47–114 of GvpJ, split-GFP …
Assay: as above
Settings: partners not purified

| Binder | relative fluorescence (rf) |
| --- | --- |
| B2 | < 5 |
| B7 | < 5 |
| B3 | < 5 |

Biological target: T5, Fragment L133–281 of GvpL, split-GFP …
Assay: as above
Settings: partners not purified

| Binder | relative fluorescence (rf) |
| --- | --- |
| B1 | < 2.6 |
| B2 | < 2.6 |
| B7 | 6.1 |
| B3 | < 2.6 |

Biological target: T6, GvpF, entire protein, split-GFP fusion
Assay: as above
Settings: partners not purified

| Binder | relative fluorescence (rf) |
| --- | --- |
| B5 | 41 |
| B6 | 20 |

Biological target: T2, Fragment J1–56 of GvpJ, split-GFP fusion
Assay: as above
Settings: partners not purified
Remark: another data set of the same source

| Binder | relative fluorescence (rf) |
| --- | --- |
| B5 | 10 |
| B8 | 20 |
| B9 | 20 |
| B4 | 20 |

Biological target: T4, Fragment J47–114 of GvpJ, split-GFP …
Assay: as above
Settings: partners not purified
Remark: another data set of the same source

| Binder | relative fluorescence (rf) |
| --- | --- |
| B5 | 5 |
| B8 | 20 |
| B9 | 20 |
| B10 | 5 |
| B4 | 11 |
| B1 | 15 |
| B11 | 13 |
